According to the supplement of paper PMC10065799, “High-throughput profiling of sequence recognition by tyrosine kinases and SH2 domains using bacterial peptide display” (eLife, 2023):

Legend:
Grb2 SH2 = Grb2 SH2 (UniProt P62993); test: SH2 binding enrichment of the phosphorylated peptide, bacterial display (enrichment ratio); higher = better substrate or ligand; peptides without Tyr show the background
SHP2-C SH2 = test: as above
c-Src SH2 = test: as above
c-Abl (mouse) = test: phosphorylation enrichment, bacterial display (enrichment ratio); higher = better substrate or ligand; peptides without Tyr show the background
AncSZ = test: as above
Jak2 = Jak2 (UniProt O60674); test: as above
FGFR3 = FGFR3 (UniProt P22607); test: as above
FGFR3, sequence (P22607 whole entry, looked up): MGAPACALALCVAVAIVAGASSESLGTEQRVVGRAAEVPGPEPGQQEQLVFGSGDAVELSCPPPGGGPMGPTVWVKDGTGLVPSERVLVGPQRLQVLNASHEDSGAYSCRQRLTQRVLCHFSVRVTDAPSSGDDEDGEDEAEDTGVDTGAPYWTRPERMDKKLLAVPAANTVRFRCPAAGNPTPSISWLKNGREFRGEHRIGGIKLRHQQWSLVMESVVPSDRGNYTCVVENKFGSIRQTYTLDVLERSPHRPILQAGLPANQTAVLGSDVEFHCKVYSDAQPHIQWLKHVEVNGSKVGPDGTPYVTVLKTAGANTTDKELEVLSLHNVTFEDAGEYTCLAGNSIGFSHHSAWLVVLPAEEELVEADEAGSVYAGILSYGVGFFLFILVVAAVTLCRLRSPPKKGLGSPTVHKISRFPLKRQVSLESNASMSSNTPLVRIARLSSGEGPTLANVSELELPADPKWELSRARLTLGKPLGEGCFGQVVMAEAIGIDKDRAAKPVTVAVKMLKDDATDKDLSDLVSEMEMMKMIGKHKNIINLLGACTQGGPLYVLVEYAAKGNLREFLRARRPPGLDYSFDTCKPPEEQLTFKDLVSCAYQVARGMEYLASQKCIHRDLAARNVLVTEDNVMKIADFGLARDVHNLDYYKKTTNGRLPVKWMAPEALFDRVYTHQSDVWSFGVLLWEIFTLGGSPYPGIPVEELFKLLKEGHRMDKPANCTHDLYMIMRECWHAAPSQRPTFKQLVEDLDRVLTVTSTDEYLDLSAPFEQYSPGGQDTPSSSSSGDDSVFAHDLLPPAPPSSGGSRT

EPHB1 = EPHB1 (UniProt P54762); test: as above
EPHB1, sequence (P54762 whole entry, looked up): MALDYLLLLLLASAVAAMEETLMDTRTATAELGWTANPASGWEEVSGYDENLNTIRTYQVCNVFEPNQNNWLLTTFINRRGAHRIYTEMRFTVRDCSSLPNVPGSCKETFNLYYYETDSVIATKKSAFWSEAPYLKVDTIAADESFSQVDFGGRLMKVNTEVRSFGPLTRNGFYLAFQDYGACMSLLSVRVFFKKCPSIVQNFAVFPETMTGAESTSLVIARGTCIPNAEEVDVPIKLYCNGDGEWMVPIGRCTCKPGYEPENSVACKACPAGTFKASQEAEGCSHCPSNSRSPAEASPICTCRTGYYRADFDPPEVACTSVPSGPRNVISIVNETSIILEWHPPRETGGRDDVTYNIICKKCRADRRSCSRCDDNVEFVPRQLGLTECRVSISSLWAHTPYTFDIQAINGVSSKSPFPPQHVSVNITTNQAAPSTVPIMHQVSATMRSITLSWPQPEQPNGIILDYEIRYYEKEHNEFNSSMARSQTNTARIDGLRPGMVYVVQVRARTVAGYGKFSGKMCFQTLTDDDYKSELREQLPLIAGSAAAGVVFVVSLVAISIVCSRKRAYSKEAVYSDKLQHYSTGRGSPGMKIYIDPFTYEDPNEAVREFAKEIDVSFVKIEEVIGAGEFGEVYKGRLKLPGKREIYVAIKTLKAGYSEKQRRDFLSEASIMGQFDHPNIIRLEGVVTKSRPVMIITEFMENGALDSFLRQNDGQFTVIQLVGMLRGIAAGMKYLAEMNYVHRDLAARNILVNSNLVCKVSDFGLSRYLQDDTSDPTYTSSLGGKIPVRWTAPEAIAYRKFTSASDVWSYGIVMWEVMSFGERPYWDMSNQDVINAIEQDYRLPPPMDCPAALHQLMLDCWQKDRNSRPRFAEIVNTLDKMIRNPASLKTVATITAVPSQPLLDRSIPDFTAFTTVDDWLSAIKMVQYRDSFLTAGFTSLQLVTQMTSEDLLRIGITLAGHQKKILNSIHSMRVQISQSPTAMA

Fer (mouse) = test: as above
Hck = Hck (UniProt P08631); test: as above
Hck, sequence (P08631 whole entry, looked up): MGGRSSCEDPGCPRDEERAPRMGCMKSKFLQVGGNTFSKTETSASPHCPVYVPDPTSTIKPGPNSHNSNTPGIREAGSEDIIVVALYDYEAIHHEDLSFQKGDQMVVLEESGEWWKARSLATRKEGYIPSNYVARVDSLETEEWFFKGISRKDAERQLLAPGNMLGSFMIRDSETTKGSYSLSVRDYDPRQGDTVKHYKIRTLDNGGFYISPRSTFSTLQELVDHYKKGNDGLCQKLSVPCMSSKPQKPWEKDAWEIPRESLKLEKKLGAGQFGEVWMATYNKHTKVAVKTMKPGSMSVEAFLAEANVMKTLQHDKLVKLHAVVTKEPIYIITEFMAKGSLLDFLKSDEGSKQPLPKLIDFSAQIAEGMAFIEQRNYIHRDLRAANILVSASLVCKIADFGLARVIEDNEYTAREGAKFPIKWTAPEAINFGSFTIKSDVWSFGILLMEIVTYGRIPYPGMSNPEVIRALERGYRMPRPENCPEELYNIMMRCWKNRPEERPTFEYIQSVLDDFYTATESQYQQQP

Fyn = Fyn (UniProt P06241); test: as above
Fyn, sequence (P06241 whole entry, looked up): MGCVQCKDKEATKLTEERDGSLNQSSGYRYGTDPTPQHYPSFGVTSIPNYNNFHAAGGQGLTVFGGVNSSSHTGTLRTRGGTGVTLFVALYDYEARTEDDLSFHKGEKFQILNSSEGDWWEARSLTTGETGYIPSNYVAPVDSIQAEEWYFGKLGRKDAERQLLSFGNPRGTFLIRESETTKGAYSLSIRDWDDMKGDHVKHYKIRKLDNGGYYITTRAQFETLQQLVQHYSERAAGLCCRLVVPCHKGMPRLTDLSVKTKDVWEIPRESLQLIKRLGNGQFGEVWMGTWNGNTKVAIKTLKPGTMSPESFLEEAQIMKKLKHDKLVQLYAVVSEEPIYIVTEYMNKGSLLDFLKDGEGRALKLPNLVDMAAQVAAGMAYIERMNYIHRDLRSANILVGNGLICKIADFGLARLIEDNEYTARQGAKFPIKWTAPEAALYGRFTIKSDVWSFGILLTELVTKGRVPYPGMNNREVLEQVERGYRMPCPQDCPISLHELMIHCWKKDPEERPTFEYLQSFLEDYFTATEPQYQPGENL

MERTK = MERTK (UniProt Q12866); test: as above
FGFR1 = FGFR1 (UniProt P11362); test: as above
FGFR1, sequence (P11362 whole entry, looked up): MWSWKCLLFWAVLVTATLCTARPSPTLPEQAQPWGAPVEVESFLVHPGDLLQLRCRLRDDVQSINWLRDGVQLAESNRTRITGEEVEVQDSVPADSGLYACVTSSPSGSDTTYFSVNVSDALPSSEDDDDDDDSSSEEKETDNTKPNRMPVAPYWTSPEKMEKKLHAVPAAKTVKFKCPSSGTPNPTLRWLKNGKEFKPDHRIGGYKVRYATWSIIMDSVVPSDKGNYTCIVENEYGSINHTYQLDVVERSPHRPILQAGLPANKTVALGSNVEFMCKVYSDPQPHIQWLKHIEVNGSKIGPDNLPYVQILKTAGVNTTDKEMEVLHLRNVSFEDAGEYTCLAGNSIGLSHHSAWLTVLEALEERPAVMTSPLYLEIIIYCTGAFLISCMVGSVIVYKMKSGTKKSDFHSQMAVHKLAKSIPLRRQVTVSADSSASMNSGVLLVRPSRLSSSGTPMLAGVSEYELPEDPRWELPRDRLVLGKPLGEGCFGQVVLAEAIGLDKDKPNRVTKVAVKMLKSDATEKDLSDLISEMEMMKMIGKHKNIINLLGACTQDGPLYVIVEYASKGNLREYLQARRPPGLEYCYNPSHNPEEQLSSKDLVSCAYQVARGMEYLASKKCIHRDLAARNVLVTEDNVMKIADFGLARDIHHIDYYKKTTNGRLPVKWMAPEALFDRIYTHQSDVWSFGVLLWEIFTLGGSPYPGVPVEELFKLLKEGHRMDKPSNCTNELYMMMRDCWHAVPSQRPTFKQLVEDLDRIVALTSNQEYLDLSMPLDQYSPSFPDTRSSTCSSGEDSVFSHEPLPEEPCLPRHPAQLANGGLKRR

EPHB2 = EPHB2 (UniProt P29323); test: as above
EPHB2, sequence (P29323 whole entry, looked up): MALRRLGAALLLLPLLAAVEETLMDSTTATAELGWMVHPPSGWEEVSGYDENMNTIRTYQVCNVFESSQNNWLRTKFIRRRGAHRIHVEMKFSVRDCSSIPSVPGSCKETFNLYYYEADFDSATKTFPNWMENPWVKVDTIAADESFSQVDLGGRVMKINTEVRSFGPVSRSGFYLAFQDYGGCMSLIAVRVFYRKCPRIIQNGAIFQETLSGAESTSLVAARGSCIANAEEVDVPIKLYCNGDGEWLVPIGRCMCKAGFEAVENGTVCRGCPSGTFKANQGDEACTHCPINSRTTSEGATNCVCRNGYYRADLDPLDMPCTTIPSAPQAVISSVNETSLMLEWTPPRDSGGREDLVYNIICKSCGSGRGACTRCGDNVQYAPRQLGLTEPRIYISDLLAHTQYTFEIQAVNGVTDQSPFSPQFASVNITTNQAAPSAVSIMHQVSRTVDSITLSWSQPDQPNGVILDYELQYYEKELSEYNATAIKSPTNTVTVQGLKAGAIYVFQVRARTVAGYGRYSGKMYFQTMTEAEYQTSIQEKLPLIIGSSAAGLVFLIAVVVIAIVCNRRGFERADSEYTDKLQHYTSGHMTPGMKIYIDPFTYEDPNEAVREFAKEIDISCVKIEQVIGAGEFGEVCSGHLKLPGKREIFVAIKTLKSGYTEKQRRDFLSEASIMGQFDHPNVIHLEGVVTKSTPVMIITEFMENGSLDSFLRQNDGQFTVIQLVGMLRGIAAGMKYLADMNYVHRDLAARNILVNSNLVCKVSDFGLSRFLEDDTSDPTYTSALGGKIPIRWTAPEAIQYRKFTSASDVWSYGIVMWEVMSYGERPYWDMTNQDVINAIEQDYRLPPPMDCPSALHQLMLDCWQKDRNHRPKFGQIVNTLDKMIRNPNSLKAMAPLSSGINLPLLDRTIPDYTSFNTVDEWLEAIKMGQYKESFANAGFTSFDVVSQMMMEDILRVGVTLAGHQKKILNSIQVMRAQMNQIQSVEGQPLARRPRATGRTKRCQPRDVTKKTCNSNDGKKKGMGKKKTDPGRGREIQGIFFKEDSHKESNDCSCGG

Fes = Fes (UniProt P07332); test: as above
c-Src = test: as above
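For SH2 binding enrichment of the phosphorylated peptide, bacterial display in this document: peptide library displayed on the E. coli surface as eCPX fusions, selected cells deep-sequenced, score is each peptide's frequency after selection divided by its frequency in the input.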
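For phosphorylation enrichment, bacterial display in this document: 11-residue human phosphosite peptides and single-mutation variants displayed on the E. coli surface, counted by deep sequencing, each peptide's frequency after selection divided by its frequency in the unselected input library; frequency after pTyr selection over input frequency; kinase dosed for 20-30% of maximal phosphorylation in three min.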

Grb2 SH2, sequence (P62993 whole entry, looked up): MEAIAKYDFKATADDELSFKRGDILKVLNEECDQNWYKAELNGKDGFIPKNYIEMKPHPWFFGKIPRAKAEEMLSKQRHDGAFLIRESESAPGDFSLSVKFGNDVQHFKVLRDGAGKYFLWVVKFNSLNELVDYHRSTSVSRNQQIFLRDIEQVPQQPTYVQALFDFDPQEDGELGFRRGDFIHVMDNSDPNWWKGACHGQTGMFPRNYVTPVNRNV

Sequence	SH2 binding enrichment (Grb2 SH2)	SH2 binding enrichment (SHP2-C SH2)	SH2 binding enrichment (c-Src SH2)	phosphorylation enrichment (c-Abl (mouse))	phosphorylation enrichment (AncSZ)	phosphorylation enrichment (Jak2)	phosphorylation enrichment (FGFR3)	phosphorylation enrichment (EPHB1)	phosphorylation enrichment (Fer (mouse))	phosphorylation enrichment (Hck)	phosphorylation enrichment (Fyn)	phosphorylation enrichment (MERTK)	phosphorylation enrichment (FGFR1)	phosphorylation enrichment (EPHB2)	phosphorylation enrichment (Fes)	phosphorylation enrichment (c-Src)
ALECLYRREKR [TEKT5_Y195_H196R]	0.769	0.551	0.268	0.522	0.775	0.788	0.482	0.466	0.435	0.515	0.539	0.621	0.584	0.534	1.85	0.66
RPQDGFRIVQH [PTPRT_Y1329_Y1329F]	0.766	0.734	0.586	0.836	0.769	0.561	0.45	0.62	0.417	0.532	0.597	0.52	0.43	0.426	0.838	0.483
STTIHYNYMCN [TP53_Y234_C229S]	0.812	0.845	1.88	0.71	1	0.792	0.809	0.603	0.592	0.543	0.517	0.53	0.629	0.677	1.14	0.458
IFRASYVPFAA [RBM47_Y541_G538R_YF]	0.8	0.681	0.542	0.527	0.859	0.784	0.635	0.645	0.388	0.506	0.463	0.389	0.508	0.548	1.04	0.384
GDEEDYEEIPG [EGFR_opt_E_2015]	0.993	0.624	0.779	0.898	1.36	1.36	0.823	0.893	0.645	0.527	0.596	0.498	0.62	0.59	1.38	0.598
LGKGSYAKVKS [TSSK2_Y23]	0.777	1.5	1.65	1.26	0.884	1.54	0.844	0.482	0.693	0.985	1.37	1.11	0.955	0.875	1.83	1.53
FVPAAYVKKLD [SPTAN1_Y1020]	0.756	0.605	0.384	0.651	0.791	0.731	0.767	0.43	0.348	0.445	0.43	0.356	0.505	0.472	0.89	0.49
RIGRKYKKVRF [F8_Y442]	0.488	0.275	0.254	0.298	0.47	0.432	0.364	0.338	0.298	0.356	0.36	0.351	0.352	0.511	0.341	0.385
TNYSLYLRSLE [MTM1_Y71_R69S]	1.01	12.1	0.669	0.574	0.952	1.29	0.659	0.722	0.555	0.601	0.423	0.602	0.456	0.671	1.15	0.42
SVTCTHSPALN [TP53_Y126_Y126H]	0.742	0.389	0.444	0.818	0.862	0.759	0.612	0.498	0.542	0.529	0.52	0.4	0.404	0.548	1.01	0.459
TARREYMHSPS [CPOX_Y429_W427R]	0.859	0.647	0.647	0.507	0.489	0.468	0.355	0.345	0.396	0.471	0.63	0.43	0.349	0.449	0.656	0.432
APQFTYAQGGQ [FLNA_Y1763_YF]	0.705	0.611	0.546	0.421	0.645	0.42	0.628	0.372	0.304	0.415	0.574	0.26	0.585	0.739	0.706	0.538
VERRVYAEDPF [PCCA_Y401_C398R_YF]	1	0.777	0.668	0.648	0.722	0.674	0.481	0.385	0.39	0.412	0.554	0.384	0.429	0.499	0.76	0.462
RLGDLYEEEMR [VIM_Y150]	0.876	0.567	0.848	0.585	0.72	0.938	0.487	0.615	0.377	0.379	0.487	0.335	0.48	0.691	1.14	0.425
